Results as given in patent US20220259593A1, “CONTROL OF MAMMALIAN GENE DOSAGE USING CRISPR” (The Regents of the University of California, priority 2019, published 2022).

System: K562 CRISPRi cells
Experiment: Constant region variant library pooled growth screen, K562
Type: cell-based, human
Conditions: sgRNA constant region variants; activity relative to the original, un-modified constant region cr995
Method in brief: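 Relative activity expresses each targeting sequence:constant region pair's phenotype over that of the unmodified constant region. Pooled growth screen ran in K562 CRISPRi cells in duplicate spinner-flask replicates, with puromycin selection and 4–8 days' growth at >2000× coverage; library paired variants with 36 targeting sequences.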

| Molecule | Mean relative activity |
| --- | --- |
| cr066 (nucleic acid, listed as DNA, chemistry not fully specified) guide: ATTCAAGAGCTAAGCTGGAAACAGCATAGCAAGTTTAAATAAGGCTAGTCCGTTATCAACTTGAAAAAGTGGCACCGAGTCGGTGCT | 0.09115 |
| cr514 (nucleic acid, listed as DNA, chemistry not fully specified) guide: GTTTAAGAGCTAAGCTGGAAACAGCATAGCAACTTTAAATAAGGCTAGTCCGTTATCAACTTGAAAAAGTGGGACCGAGTCGGTCCT | 0.05776 |
| cr193 (nucleic acid, listed as DNA, chemistry not fully specified) guide: GTTTAAGAGCTAAGCTGGAAACAGCATAGCAAGTTTAAATAAAGCTAGTCTGTTATCAATTTGAAAAAATGCCACCGAGTCGGTGGT | 0.06081 |
| cr115 (nucleic acid, listed as DNA, chemistry not fully specified) guide: GTTTAAGAGCTAAGCTGGAAACAGCATAGCAAGTTTAAATAATGCTAGTCAGTTATCAACTCGAAAGAGTGGCACCGAGTCGGTGCT | 0.05506 |
| cr776 (nucleic acid, listed as DNA, chemistry not fully specified) guide: GTTTAAGAGCTAAGCTGGAAACAGCATAGCAAGTTTAAATAAGGCTAGTCCGTTATCATCTAGAAATAGAGGCACCGAGTCGGTGCT | 1.037 |
| cr197 (nucleic acid, listed as DNA, chemistry not fully specified) guide: GTTTAAGAGCTAAGCTGGAAACAGCATAGCAAGTTTAAATAATGCTAGTCAGTTATCAACTGGAAACAGTGGCACCGAGTCGGTGCT | 0.06436 |
| cr298 (nucleic acid, listed as DNA, chemistry not fully specified) guide: GTTTAAGAGCTAAGCTGGAAACAGCATAGCAAGTTTAAATAAGGCTAGTCCTTTATCAACTTGAAAAAGTGGCACCGACTCGGTGCT | 0.06335 |
| cr985 (nucleic acid, listed as DNA, chemistry not fully specified) guide: GTTTAAGAGCTAAGCTGGAAACAGCATAGCAAGTTTAAATAAGGCTAGTCCTTTATCAACTTGAAAAAGTGGCACCGAGTCGGTGCT | 0.07562 |
| cr061 (nucleic acid, listed as DNA, chemistry not fully specified) guide: GTTCAACAGCTAAGCTGGAAACAGCATAGCAAGTTTAAATAAGGCTAGTCCGTTATCAACTTGAAAAAGTGGCACCGAGTCGGTGCT | 0.05691 |
| cr928 (nucleic acid, listed as DNA, chemistry not fully specified) guide: GTTTAAGAGCTAAGCTGGAAACAGCATAGCTAGTTTAAATGAGGCTAGTCCGTAATCAACTTGAAAAAGTGGCACCGAGTCGGTGCT | 0.05583 |
| cr465 (nucleic acid, listed as DNA, chemistry not fully specified) guide: GTTTAAGAGCTAAGCTGGAAACAGCATAGCAAGCTTAAATAAGGATATTCCGTTATCAACTTGAAAAAGTGGCACCGAGTCGGTGCT | 0.04864 |
| cr791 (nucleic acid, listed as DNA, chemistry not fully specified) guide: GTTTAAGAGCTAAGCTGGAAACAGCATAGCAAGTTTAAATAAAGCTAGTCTGTTATCAACTTGAAAAAGTGGCACCCAGTGGGTGCT | 0.07648 |
| cr483 (nucleic acid, listed as DNA, chemistry not fully specified) guide: GTTTAAGAGCTAAGCTGGAAACAGCATAGCAAGTTTAAATAAGGCTAGTCCGTTATCAACTAGAAATAGTGGCGTCGAGTCGACGCT | 1.037 |
| cr419 (nucleic acid, listed as DNA, chemistry not fully specified) guide: GTTTAAGAGCTAAGCTGGAAACAGCATAGCAACTTTAAATAAGGCTAGTCCGTTATCAACTTGAAAAAGTGGAACCGAGTCGGTTCT | 0.05682 |
| cr741 (nucleic acid, listed as DNA, chemistry not fully specified) guide: GTTTAAGAGCTAAGCTGGAAACAGCATGGCAAGTTTAAATACGGCTAGACCGTTATCAACTTGAAAAAGTGGCACCGAGTCGGTGCT | 0.06347 |
| cr677 (nucleic acid, listed as DNA, chemistry not fully specified) guide: GTTTAAGAGCTAAGCTGGAAACAGCATAGCAAGTTTAAATTAGGCTAGTCCGTTATCAACTTGAAAAAGTGGCACCGAGTCGGTGCT | 0.04623 |

| Molecule | Mean relative activity |
| --- | --- |
| cr038 (nucleic acid, listed as DNA, chemistry not fully specified) guide: GTTTGCGAGCTAAGCTGGAAACAGCATAGCAAGTTTAAATAAGGCTAGTCCGTTATCAACTTGAAAAAGTGGCACCGAGTCGGTGCT | 0.07321 |
| cr588 (nucleic acid, listed as DNA, chemistry not fully specified) guide: GTTTAAGAGCTAAGCTGGAAACAGCATAGCAACTTTAAATAAGGCTAGTCCGTTATCAACTTGAAAAAGTGGTACCGAGTCGGTACT | 0.07507 |
| cr467 (nucleic acid, listed as DNA, chemistry not fully specified) guide: GTTTAAGAGCTAAGCTGGAAACAGCATAGCAAGCTTAAATAAGGCTAGTCCGTTATCAATTTGAAAAAATGGCACCGAGTCGGTGCT | 0.06565 |
| cr582 (nucleic acid, listed as DNA, chemistry not fully specified) guide: GTTTAAGAGCTAAGCTGGAAACAGCATAGCAAGTTTAAATACGGCTTGTCCGTTATCAACTTCAAAAAGTGGCACCGAGTCGGTGCT | 0.07315 |
| cr764 (nucleic acid, listed as DNA, chemistry not fully specified) guide: GTTTAAGAGCTAAGCTGGAAACAGCATAGCAACTTTAAATAAGGCTAGTCCGTTATCAACTTGAAAAAGTGGCACCGAGTCGGTGCT | 0.04863 |
| cr188 (nucleic acid, listed as DNA, chemistry not fully specified) guide: GTTTAAGAGCTAAGCTGGAAACAGCATAGCAAGTTTAAATAATGCTAGTCAGTTATCAACCTGAAAAGGTGGCACCGAGTCGGTGCT | 0.04409 |
| cr097 (nucleic acid, listed as DNA, chemistry not fully specified) guide: GCTTACGAGCTAAGCTGGAAACAGCATAGCAAGTTTAAATAAGGCTAGTCCGTTATCAACTTGAAAAAGTGGCACCGAGTCGGTGCT | 0.06585 |
| cr045 (nucleic acid, listed as DNA, chemistry not fully specified) guide: TTTTATGAGCTAAGCTGGAAACAGCATAGCAAGTTTAAATAAGGCTAGTCCGTTATCAACTTGAAAAAGTGGCACCGAGTCGGTGCT | 0.04839 |
| cr438 (nucleic acid, listed as DNA, chemistry not fully specified) guide: GTTTAAGAGCTAAGCTGGAAACAGCATAGCCAGTTTAAATACGGCTAGTCCGTTGTCAACTTGAAAAAGTGGCACCGAGTCGGTGCT | 0.06886 |
| cr762 (nucleic acid, listed as DNA, chemistry not fully specified) guide: GTTTAAGAGCTAAGCTGGAAACAGCATAGCACGTTTAAATAAGGCTAGTCCTTTATCAACTTGAAAAAGTGGCACCGAGTCGGTGCT | 0.0885 |
| cr422 (nucleic acid, listed as DNA, chemistry not fully specified) guide: GTTTAAGAGCTAAGCTGGAAACAGCATAGCAAGTTTAAATAAGGCTAGTCCGTTATCAACTTGAAAAAGTGGTACCGAGTCGTTCCT | 0.0493 |
| cr739 (nucleic acid, listed as DNA, chemistry not fully specified) guide: GTTTAAGAGCTAAGCTGGAAACAGCATAGCAACTTTAAATAAGGCTAGTCCGTTATCAACGTGAAAACGTGGCACCGAGTCGGTGCT | 0.08764 |
| cr082 (nucleic acid, listed as DNA, chemistry not fully specified) guide: CGTTAAGAGCTAAGCTGGAAACAGCATAGCAAGTTTAAATAAGGCTAGTCCGTTATCAACTTGAAAAAGTGGCACCGAGTCGGTGCT | 0.0741 |
| cr050 (nucleic acid, listed as DNA, chemistry not fully specified) guide: CTTTAGGAGCTAAGCTGGAAACAGCATAGCAAGTTTAAATAAGGCTAGTCCGTTATCAACTTGAAAAAGTGGCACCGAGTCGGTGCT | 0.04785 |
| cr625 (nucleic acid, listed as DNA, chemistry not fully specified) guide: GTTTAAGAGCTAAGCTGGAAACAGCATAGCAAGCTTAAATAAGGCTAGTCCGTTATCAACTTGAAAAAGTGGCACCTAGTAGGTGCT | 0.04332 |
